Data taken from IntAct's records for PubMed 21803990.

B1: ATP-dependent protease ATPase subunit HslU (Escherichia coli (strain K12)), P0A6H5 (parent)
chain: MSEMTPREIVSELDKHIIGQDNAKRSVAIALRNRWRRMQLNEELRHEVTPKNILMIGPTGVGKTEIARRLAKLANAPFIKVEATKFTEVGYVGKEVDSIIRDLTDAAVKMVRVQAIEKNRYRAEELAEERILDVLIPPAKNNWGQTEQQQEPSAARQAFRKKLREGQLDDKEIEIDLAAAPMGVEIMAPPGMEEMTSQLQSMFQNLGGQKQKARKLKIKDAMKLLIEEEAAKLVNPEELKQDAIDAVEQHGIVFIDEIDKICKRGESSGPDVSREGVQRDLLPLVEGCTVSTKHGMVKTDHILFIASGAFQIAKPSDLIPELQGRLPIRVELQALTTSDFERILTEPNASITVQYKALMATEGVNIEFTDSGIKRIAEAAWQVNESTENIGARRLHTVLERLMEEISYDASDLSGQNITIDADYVSKHLDALVADEDLSRFIL
partner: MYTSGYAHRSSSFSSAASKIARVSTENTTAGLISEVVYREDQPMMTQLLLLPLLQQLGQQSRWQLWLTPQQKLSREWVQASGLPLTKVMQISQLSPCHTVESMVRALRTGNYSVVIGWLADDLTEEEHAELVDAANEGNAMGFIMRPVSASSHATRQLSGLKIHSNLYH

Variants of: B1
Conditions: with sula_ecoli sulA

Variant	effect of a mutation on the interaction
Y91F	increasing interaction
Y408A	increasing interaction
E266Q	increasing interaction

Variants of: B1
Conditions: with sula_ecoli sulA
Remark: another data set of the same source

Variant	effect of a mutation on the interaction
G90D	increasing interaction
